Reference: patent US8859237B2, “Diguanylate cyclase method of producing the same and its use in the manufacture of cyclic-di-GMP and analogues thereof” (priority 2009, dated 2014)
Positions count from the first letter of the chain named. Names may count otherwise. “Also recorded” adds a separate entry of the source.

What was measured:
S. aureus = details: murine mastitis infection; cited from earlier work
[1] = tested on: human colon carcinoma cells; details: basal and growth factor-induced; cited from earlier work
Staphylococcus aureus = details: exogenous c-di-GMP; incl. methicillin-resistant strains; cited from earlier work
[2] = Diguanylate cyclase (DGC) activity assay and steady-state kinetic measurement (HPLC, GTP to c-di-GMP); format: biochemical, Thermotoga maritima
Method: Enzyme assays were conducted to determine the optimal salt concentration of the DGC reaction, with the buffer that contains 50 mM Tris-HCl (pH 8.0), 20 mM MgCl2, 100 μM GTP, 10 μM Enzyme, and 0-500 mM NaCl. Enzyme assays were conducted to determine the optimal pH concentration of the DGC reaction, with the buffer that contains 50 mM Tris-HCl (pH 7.0-9.0), 250 mM NaCl, 20 mM MgCl2, 100 μM GTP, 10 μM Enzyme. Reaction mixtures were incubated in a waterbath at 55° C. for 15 minutes. After heating at 95° C. for 10 min and centrifugation at 14,000 rpm for 5 min to remove protein precipitate, the supernatant was filtered before loading onto the Eclipse XDB-C18 (4.6×150 mm) column for monitoring the turnover from GTP to c-di-GMP using an Agilent LC1200 system (Mobile phase: 20 mM Triethylammonium bicarbonate (pH 7.0, pH adjusted using acetic acid), 9% Methanol, Flow rate: 1 mL/min). For thermostability analysis, the mutant protein was incubated at 45, 55 and 65° C., aliquots of protein solution were taken out at different time points to add into the reaction mixture that contains 50 mM Tris-Cl (pH 7.5), 250 mM NaCl, 20 mM MgCl2 and 100 μM GTP. The reaction was allowed to last for 10 min before being stopped and analyzed for GTP turnover by using HPLC. For product yield and steady state kinetic measurement, the standard reaction mixture include 50 mM Tris-Cl (pH 8), 20 mM MgCl2, 300 mM NaCl, 1 μM Enzyme, 5-800 μM GTP. Reactions were incubated at 55° C. for 1-60 minutes to obtain linear range of progress. For steady kinetics, data was fitted using GraphPad (Prism) to obtain the kinetic parameters.

[3] = Size-exclusion chromatography, oligomeric state in solution; format: physicochemical, Thermotoga maritima; details: Superdex 75, 4° C., FIG. 3
Method: Gel filtration was performed at 4° C. using the AKTA FPLC system equipped with a Superdex 75 HR 16/60 column (Amersham Biosciences). The buffer used for gel filtration is comprised of 50 mM Tris-Cl (pH 8.0), 300 mM NaCl, 5% Glycerol, 1 mM DTT. Fractions containing the recombinant protein were concentrated using Amicon concentrator (Millipore) to a final concentration of ca. 5 mg/ml as measured using Bradford assay. Concentrated proteins were stored in −80° C. degree after flash-freeze using liquid nitrogen. Mutant proteins were expressed, purified and stored following the same procedure. The molecular weight and oligomeric state of the protein was estimated based on the standard curve generated by using the standard proteins that include albumin, ovalbumin, chemotrypsinogen, RNase A. The final yield of the recombinant protein was 12-15 mg per liter culture for the wild type the mutant enzyme.

[4] = c-di-GMP binding at the I-site of tDGC (absorption spectrum 256 nm peak, HPLC of denatured protein); set-up: species or system Thermotoga maritima; details: purified protein, FIG. 1
Method: The observation was surprising since the synthesis of c-di-GMP from two molecules of GTP requires the DGC protein to function in its dimeric form.
However, despite the improved thermostability, we found the overall production yield was low even at high substrate concentration with prolonged incubation.

Molecule: Nc1nc2c(ncn2[C@@H]2O[C@@H]3COP(=O)(O)O[C@H]4[C@@H](O)[C@H](n5cnc6c(=O)[nH]c(N)nc65)O[C@@H]4COP(=O)(O)O[C@H]3[C@H]2O)c(=O)[nH]1 [c-di-GMP, Bis-(3′-5′)-cyclic dimeric guanosine monophosphate]
- effect on colonization and biofilm formation (S. aureus): inhibit colonization and biofilm formation
- effect on cell proliferation [1]: inhibiting basal and growth factor-induced proliferation
- effect on in vitro cell-cell interactions and biofilm formation (Staphylococcus aureus): reduce in vitro cell-cell interactions and biofilm formation

B1: R158A: tDGC diguanylate cyclase domain with I-site arginine 158 replaced by alanine (protein, listed as Thermotoga maritima)
chain: MGSSHHHHHHSSGLVPRGSHMKELEYMAYHDPLTGLPNRRYFFELGNRYLDLAKREGKKVFVLFVDLAGFKAINDTYGHLSGDEVLKTVSKRILDRVARSDVVARYGGDEFTILLYDMKEEYLKSLLERILSTFREPVRVENKHLSVTPNIGVARFPEDGENLEELLKVADMRMYKAKEMKVPYFSLS
modifications: DOMAIN (24)..(181) example of GGDEF domain
notes: tDGC diguanylate cyclase domain with I-site arginine 158 replaced by alanine
- NaCl concentration at which the enzyme is most efficient ([2]; 0-500 mM NaCl screened, 55° C., FIG. 4): 250 to 300 mM
- GTP concentration above which production yield decreased (substrate inhibition) ([2]; FIG. 2, 55° C.): ca. 0.8 mM
- pH at which the enzyme is most efficient ([2]; pH 7.0-9.0 screened, 55° C., FIG. 4): 7.5
- kcat of GTP condensation ([2]; steady-state kinetics, 55° C.): 0.0433 s⁻¹
- GTP substrate turned over into c-di-GMP ([2]; under the assay conditions): ~100%
- oligomeric form in solution [3]: monomer
- c-di-GMP binding / association with the protein [4]: c-di-GMP is no longer associated with the protein; also recorded: abolished the c-di-GMP binding capability

B2: R158Q: tDGC diguanylate cyclase domain with I-site arginine 158 replaced by glutamine (protein, listed as Thermotoga maritima)
chain: B1 chain with A98Q
modifications: DOMAIN (24)..(181) example of GGDEF domain
notes: tDGC diguanylate cyclase domain with I-site arginine 158 replaced by glutamine
- c-di-GMP binding / association with the protein [4]: abolished the c-di-GMP binding capability
